Results as given in patent US20250388664A1 (BIOARCTIC, published 2025).
Like-named read-outs stand apart in the source and are kept apart here.

How the values were obtained:
Aβ1-28 monomer = target: T1, Aβ1-28 monomer (UniProt P05067 672-699); assay: SPR, antibody immobilised
T1 construct: range 1-28 (Aβ numbering)
Protocol: Affinity and specificity evaluation and KD determination by surface plasmon resonance: Binding interactions between antigens and antibodies were evaluated by SPR using a Biacore 8K instrument (Cytiva) according to standard procedures. […] Additionally, the specificity towards different N-truncated forms of Aβ (Aβ2-28, Aβ3-28, Aβ4-28 and AβpE11-28 monomers) was evaluated.
(§1) Single cycle kinetics with the antibodies immobilized on a CM5 chip was used to measure the binding of the antibodies to the different monomers (AβpE3-40, AβpE11-28, Aβ1-28, Aβ2-28, Aβ3-28 and Aβ4-28). For the measurements, 5 μg/ml of analyte antibody was immobilized on the chip. […] Regeneration of the surface between cycles was done by injecting 30 μl 3 M MgCl₂. The binding data was fitted to a 1:1 interaction model.
(§2) In all SPR experiments, 1×HBS-EP+ (Cytiva, cat. no. BR100669) was used as running buffer and to dilute antibodies and target antigens. Experiments were performed at 25° C.

Aβ2-28 monomer = target: T2, Aβ2-28 monomer (UniProt P05067 673-699); assay: SPR, antibody immobilised
T2 construct: range 2-28 (Aβ numbering)
T2 sequence (P05067 673-699): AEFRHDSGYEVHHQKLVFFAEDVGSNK
Protocol: as §1, §2

AβpE11-28 monomer = target: T3, AβpE11-28 monomer (UniProt P05067 682-699, pyroglutamate at position 11 (N-terminal residue)); assay: SPR, antibody immobilised
T3 construct: range 11-28 (Aβ numbering)
T3 peptide (looked up): EVHHQKLVFFAEDVGSNK
Protocol: as §1, §2

AβpE3-40 monomer [1] = target: T4, AβpE3-40 monomer (UniProt P05067 674-711, pyroglutamate at position 3 (N-terminal residue)); assay: SPR, antibody immobilised, monomer injected, 1:1 fit
T4 construct: range 3-40 (Aβ numbering); Synthetic peptide (Bachem/Anaspec), verified monomeric by SEC; also called monomeric AβpE3-40
Protocol: as §1, §2

Aβ3-28 monomer = target: T5, Aβ3-28 monomer (UniProt P05067 674-699); assay: as above
T5 construct: range 3-28 (Aβ numbering)
T5 sequence (P05067 674-699): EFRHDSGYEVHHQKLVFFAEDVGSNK
Protocol: as §1, §2

Aβ4-28 monomer = target: T6, Aβ4-28 monomer (UniProt P05067 675-699); assay: as above
T6 construct: range 4-28 (Aβ numbering)
T6 sequence (P05067 675-699): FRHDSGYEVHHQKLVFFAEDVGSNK
Protocol: as §1, §2

AβpE3-40 monomer [2] = target: T4, AβpE3-40 monomer; assay: inhibition ELISA, antigen titrated in solution, AβpE3-40 coat
Protocol: (§3) For binding to Aβ1-40 and AβpE11-40, the positive control 4G8 (Covance #SIG-39320, epitope: amino acids 17-24 of Aβ) was included. The recombinant antibodies were incubated at a fixed concentration (0.05 μg/ml) with titrating concentrations of the different Aβ antigens. After incubation for 45 min at 900 rpm to reach equilibrium, the antibody-Aβ samples were added to a blocked and washed ELISA plate with an AβpE3-40 coat (0.5 μM). The samples were incubated on the plate for 25 min without shaking followed by washing, incubation with detection antibody, another washing step and finally incubation with alkaline phosphatase substrate.

Aβ1-40 monomer = target: T7, Aβ1-40 monomer (UniProt P05067 672-711); assay: as above
T7 construct: range 1-40 (Aβ numbering)
Protocol: as §3

AβpE11-40 monomer = target: T8, AβpE11-40 monomer (UniProt P05067 682-711, pyroglutamate at position 11 (N-terminal residue)); assay: as above
T8 construct: range 11-40 (Aβ numbering)
T8 peptide (looked up): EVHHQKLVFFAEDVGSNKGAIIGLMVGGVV
Protocol: as §3

AβpE3-42 protofibrils [3] = target: T9, AβpE3-42 protofibrils (UniProt P05067 674-713, pyroglutamate at position 3 (N-terminal residue)); assay: as above
T9 construct: range 3-42 (Aβ numbering); Soluble aggregates made from AβpE3-42 peptide, purified in the void peak of SEC; also called AβpE3-42 PF
T9 sequence (P05067 674-713): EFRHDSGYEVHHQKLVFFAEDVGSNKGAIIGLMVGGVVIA
Protocol: as §3

AβpE3-42 protofibrils [4] = target: T9, AβpE3-42 protofibrils; assay: SPR, protofibrils immobilised, antibody injected, 1:1 fit, apparent
Protocol: (§4) Single cycle kinetics was also used to measure binding of the antibodies to AβpE3-42 protofibrils. […] For binding to AβpE3-42 protofibrils, the antibodies were injected over the chip using a 3-fold dilution series in five steps starting at 700 nM, using 2 min injection of every antibody concentration and a 60 min dissociation time. Regeneration of the surface between cycles was done by injecting 30 μl 10 mM glycine-HCl pH 1.7. The binding data was fitted to a 1:1 interaction model.
as §2

Aβ1-42 monomer = target: T10, Aβ1-42 monomer (UniProt P05067 672-713); assay: ELISA: Aβ monomer captured on a polyclonal anti-Aβ42 coat, hybridoma supernatant diluted 1/243, anti-mouse IgG-HRP
T10 construct: range 1-42 (Aβ numbering)
T10 sequence (P05067 672-713): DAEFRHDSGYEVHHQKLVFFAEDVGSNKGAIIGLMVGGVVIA

Aβ2-42 monomer = target: T11, Aβ2-42 monomer (UniProt P05067 673-713); assay: as above
T11 construct: range 2-42 (Aβ numbering)
T11 sequence (P05067 673-713): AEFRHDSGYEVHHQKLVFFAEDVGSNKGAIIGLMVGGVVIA

AβpE3-42 protofibrils [5] = target: T9, AβpE3-42 protofibrils; assay: SPR, protofibrils immobilised, antibody injected, 1:1 fit, apparent; binding to AβpE3-42 protofibrils (not monomer); KD in pM
Protocol: as §4, §2

[6] = target: T12, hTfR1 (recombinant, construct not specified) (human, UniProt P02786 89-760, limits assumed); assay: ELISA on coated hTfR1, biotinylated scFv detected with streptavidin-HRP, after 48 h in mouse serum or PBS at 37°C or 4°C
T12 construct: also called biotinylated hTfR1
Protocol: After 48 h incubation, binding of the scFv to hTfR1 was evaluated by ELISA. […] The reaction was stopped by 1:1 addition of 0.5 M sulfuric acid (#35354-1L, Honeywell). Optical density at 450 nm was obtained using a microplate reader (Spark, Tecan) and the collected data was plotted using GraphPad Prism software (GraphPad Software Inc).

[7] = target: T13, truncated hTfR1 of SEQ ID NO:122 (human, UniProt P02786 122-760); assay: SPR, TfR1 amine-coupled, Fab injected, 1:1 fit
T13 construct: also called human TfR1; Human TfR1
Protocol: (§5) The interaction was measured using the single cycle kinetics method with a contact time of 120 s at a flow rate of […] followed by a dissociation time of 600 s. Regeneration of the surface between cycles was done by injecting 3M MgCl₂. The binding data were fitted to a 1:1 interaction model. The Fabs were diluted in HBS-EP+ (Cytiva, #BR100669). Experiments were performed at 25° C.

[8] = target: T14, truncated cTfR1 of SEQ ID NO:123 (cynomolgus monkey, UniProt Q5RDH6 122-760 (Pongo abelii entry)); assay: SPR, TfR1 amine-coupled, Fab injected, 1:1 fit
T14 construct: also called cynomolgus TfR1
T14 chain: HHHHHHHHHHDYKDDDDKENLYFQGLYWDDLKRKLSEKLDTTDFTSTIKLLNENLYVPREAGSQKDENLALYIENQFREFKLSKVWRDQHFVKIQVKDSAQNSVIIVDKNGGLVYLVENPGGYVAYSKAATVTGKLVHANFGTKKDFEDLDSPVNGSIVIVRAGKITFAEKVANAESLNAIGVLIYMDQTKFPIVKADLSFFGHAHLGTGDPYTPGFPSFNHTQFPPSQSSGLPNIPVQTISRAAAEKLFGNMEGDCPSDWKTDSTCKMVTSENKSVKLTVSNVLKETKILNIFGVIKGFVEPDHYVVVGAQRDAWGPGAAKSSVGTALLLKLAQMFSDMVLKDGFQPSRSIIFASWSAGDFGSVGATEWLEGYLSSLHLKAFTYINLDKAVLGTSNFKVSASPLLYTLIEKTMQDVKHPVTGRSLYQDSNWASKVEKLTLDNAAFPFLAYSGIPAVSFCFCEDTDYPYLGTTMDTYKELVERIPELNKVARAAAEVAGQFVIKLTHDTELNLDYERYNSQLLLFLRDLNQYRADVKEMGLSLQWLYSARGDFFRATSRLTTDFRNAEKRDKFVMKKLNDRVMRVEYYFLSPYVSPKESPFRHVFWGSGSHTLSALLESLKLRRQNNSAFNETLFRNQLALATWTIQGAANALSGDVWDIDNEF
Protocol: as §5

[9] = target: T13, truncated hTfR1 of SEQ ID NO:122; assay: SPR, TfR1 amine-coupled, Fab injected, 1:1 fit; remark: listed apart in the source
Protocol: (§6) Binding of the purified Fabs to human and cynomolgus TfR1 was evaluated using either SPR (FIG. 44) or indirect ELISA (FIG. 45). For SPR, a Biacore 8K instrument (Cytiva) was used. […] The Fabs were injected over the chip using a 2-fold dilution series in four steps starting at 100 nM. The interaction was measured using the single cycle kinetics method with a contact time of 120 s at a flow rate of 30 μl/min followed by a dissociation time of 1000 s. Regeneration of the surface between cycles was done by injecting 3M MgCl₂. The binding data was fitted to a 1:1 interaction model. The Fabs were diluted in HBS-EP+ (Cytiva, #BR100669). Experiments were performed at 25° C.

[10] = target: T14, truncated cTfR1 of SEQ ID NO:123; assay: SPR, TfR1 amine-coupled, Fab injected, 1:1 fit
Protocol: as §6

[11] = target: T15, ectodomain of human TfR1 (His10-hTfR1; SEQ ID NO:110) (human, UniProt P02786 89-760); assay: indirect ELISA: plate coated with 1 µg/ml hTfR1 ectodomain, Fab in 1:3 serial dilution, anti-human IgG F(ab')2-HRP
T15 construct: also called ectodomain of hTfR1
Protocol: For the indirect ELISA, half area 96-well plates (Corning, #3690) were coated with 1 μg/ml recombinant ectodomain of hTfR1 (SEQ ID NO:110) in PBS overnight at 4° C. The coated plates were blocked using Pierce protein-free blocking solution (Thermo Fisher Scientific, #37572) for 1 h at room temperature with shaking and washed four times in PBS containing 0.1% TWEEN-20. Serial dilutions (1:3) of various expressed constructs in incubation buffer (1% BSA, 0.1% TWEEN-20 in PBS) were incubated for 1 h at room temperature. […] Following four wash steps, K-Blue® Aqueous TMB substrate (Neogen, #331177) was added to the wells for 15 min at room temperature before the reaction was stopped with 1:1 dilution of 0.5 M H₂SO₄. The optical density at 450 nm was recorded (Spark, Tecan) and background signal was subtracted before analysis.

T1 sequence (P05067 672-699): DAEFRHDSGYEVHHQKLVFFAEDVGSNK

B1: Pyr12.2 (antibody, V domains shown)
VH: EVQLQQSGPELVKPGTSIKMSCKASGYSFTGFTMNWVKQSHGKNLEWIGLINPYNGVTTYNQKFKGKATITVDKSSRTAYMELLSLTYEDSAVYYCTREGNWEGVYWGQGTPVTVSA
VL: EVVLTQTPLTLSVTIGQSASISCKSSQSLLDSNGKTYLHWFLLRPGQSPKRLIYLVSILDSGVPDRFTGSGSGTDFTLKISRVEAEDLGIYYCVQGTHFPFTFGSGTKLEIKR
notes: Murine anti-AβpE3 antibody; also called recombinant antibody Pyr12.2; hybridoma clone Pyr12.2
B1: no binding (tested: 2500 nM) (Aβ1-28 monomer); no binding (tested: 2500 nM) (Aβ2-28 monomer); no binding (tested: 2500 nM) (AβpE11-28 monomer). The Kd (AβpE3-40 monomer [1]) was 0.57 nM, the koff (AβpE3-40 monomer [1]) was 4.12e-05 s⁻¹ and the kon (AβpE3-40 monomer [1]) was 71800 M⁻¹ s⁻¹. The Kd (Aβ3-28 monomer) was 42.6 nM, the koff (Aβ3-28 monomer) was 5.77e-05 s⁻¹ and the kon (Aβ3-28 monomer) was 1750 M⁻¹ s⁻¹. For the same binder, the Kd (Aβ4-28 monomer) was 6760 nM, the koff (Aβ4-28 monomer) was 0.481 s⁻¹ and the kon (Aβ4-28 monomer) was 78200 M⁻¹ s⁻¹. For the same binder, the IC50 (AβpE3-40 monomer [2]) was 1.52 nM, the IC50 (Aβ1-40 monomer) was greater than 5000 nM and the IC50 (AβpE11-40 monomer) was greater than 5000 nM. For the same binder, the IC50 (AβpE3-42 protofibrils [3]) was 8.43 nM, the koff (AβpE3-42 protofibrils [4]) was 3.31e-06 s⁻¹ and the kon (AβpE3-42 protofibrils [4]) was 63100 M⁻¹ s⁻¹. The binding result (Aβ1-42 monomer) was “no binding”, the binding result (Aβ2-42 monomer) was “no binding” and the Kd (AβpE3-42 protofibrils [5]) was 0.0536 nM.

B2: h26D3wt_DS, VL-first (His6 and Avi tags, biotinylated) (scFv)
scFv: DIQMTQSPSSVSASVGDRVTITCKSSQSLLYSTNQKNYLAWYQQKPGKAPKLLIYWASTRESGVPSRFSGSGSGTDFTLTISSLQPEDFATYYCQQYFIYPRTFGCGTKVEIKGGGGSGGGGSGGGGSGGGGSEVQLVQSGAEVKKPGSSVKVSCKASGYIFTDYNMDWVRQAPGQCLEWIGDINPDYDTTSYNEKFKGRATLTVDKSTSTAYMELSSLRSEDTAVYYCARGGYSGSSYYHPMDYWGQGTLVTVSS
modifications: biotin on the Avi tag (site directed in vivo biotinylation)
In the case of B2, the “EC50 (read off the curve)” value [6] is reported as roughly 0.02 µg/mL.

B3: h26D3-Fab (Fab, V domains shown)
VH: EVQLVQSGAEVKKPGSSVKVSCKASGYIFTDYNMDWVRQAPGQGLEWIGDINPDYDTTSYNEKFKGRATLTVDKSTSTAYMELSSLRSEDTAVYYCARGGYSGSSYYHPMDYWGQGTLVTVSS
VL: DIQMTQSPSSVSASVGDRVTITCKSSQSLLYSTNQKNYLAWYQQKPGKAPKLLIYWASTRESGVPSRFSGSGSGTDFTLTISSLQPEDFATYYCQQYFIYPRTFGQGTKVEIK
notes: His-tagged Fab from ExpiCHO; also called humanized 26D3 Fab
B3 gave a Kd [7] of 3.2 nM, a koff [7] of 0.0045 s⁻¹ and a kon [7] of 1.2e+06 M⁻¹ s⁻¹. The Kd [8] was 5.8 nM, the Kd [9] was 10 nM and the Kd [10] was 12 nM. The “EC50 (read off the curve)” value [11] was roughly 0.3 nM.
